According to article PMC5701055 (Nature Communications, 2017):

B1: HCoV-229E S-protein receptor-binding domain (RBD), residues 293–435, WT (Class I) (domain or fragment)
chain: LPVYHKHTFIVLYVDFKPQSGGGKCFNCYPAGVNITLANFNETKGPLCVDTSHFTTKYVAVYANVGRWSASINTGNCPFSFGKVNNFVKFGSVCFSLKDIPGGCAMPIVANWAYSKYYTIGSLYVSWSDGDGITGVPQPVEGV
B2: HCoV-229E S-protein S1 region, residues 17–560, WT (domain or fragment)
chain: QTTNGLNTSYSVCNGCVGYSENVFAVESGGYIPSDFAFNNWFLLTNTSSVVDGVVRSFQPLLLNCLWSVSGLRFTTGFVYFNGTGRGDCKGFSSDVLSDVIRYNLNFEENLRRGTILFKTSYGVVVFYCTNNTLVSGDAHIPFGTVLGNFYCFVNTTIGNETTSAFVGALPKTVREFVISRTGHFYINGYRYFTLGNVEAVNFNVTTAETTDFCTVALASYADVLVNVSQTSIANIIYCNSVINRLRCDQLSFDVPDGFYSTSPIQSVELPVSIVSLPVYHKHTFIVLYVDFKPQSGGGKCFNCYPAGVNITLANFNETKGPLCVDTSHFTTKYVAVYANVGRWSASINTGNCPFSFGKVNNFVKFGSVCFSLKDIPGGCAMPIVANWAYSKYYTIGSLYVSWSDGDGITGVPQPVEGVSSFMNVTLDKCTKYNIYDVSGVGVIRVSNDTFLNGITYTSTSGNLLGFKDVTKGTIYSITPCNPPDQLVVYQQAVVGAMLSENFTSYGFSNVVELPKFFYASNGTYNCTDAVLTYSSFGVCADGS

Legend:
[1] = target: T1, soluble ectodomain of human aminopeptidase N (hAPN), residues 66–967, WT (human, UniProt P15144 66-967); assay: SPR; settings: both partners purified
T1 sequence (P15144 66-967): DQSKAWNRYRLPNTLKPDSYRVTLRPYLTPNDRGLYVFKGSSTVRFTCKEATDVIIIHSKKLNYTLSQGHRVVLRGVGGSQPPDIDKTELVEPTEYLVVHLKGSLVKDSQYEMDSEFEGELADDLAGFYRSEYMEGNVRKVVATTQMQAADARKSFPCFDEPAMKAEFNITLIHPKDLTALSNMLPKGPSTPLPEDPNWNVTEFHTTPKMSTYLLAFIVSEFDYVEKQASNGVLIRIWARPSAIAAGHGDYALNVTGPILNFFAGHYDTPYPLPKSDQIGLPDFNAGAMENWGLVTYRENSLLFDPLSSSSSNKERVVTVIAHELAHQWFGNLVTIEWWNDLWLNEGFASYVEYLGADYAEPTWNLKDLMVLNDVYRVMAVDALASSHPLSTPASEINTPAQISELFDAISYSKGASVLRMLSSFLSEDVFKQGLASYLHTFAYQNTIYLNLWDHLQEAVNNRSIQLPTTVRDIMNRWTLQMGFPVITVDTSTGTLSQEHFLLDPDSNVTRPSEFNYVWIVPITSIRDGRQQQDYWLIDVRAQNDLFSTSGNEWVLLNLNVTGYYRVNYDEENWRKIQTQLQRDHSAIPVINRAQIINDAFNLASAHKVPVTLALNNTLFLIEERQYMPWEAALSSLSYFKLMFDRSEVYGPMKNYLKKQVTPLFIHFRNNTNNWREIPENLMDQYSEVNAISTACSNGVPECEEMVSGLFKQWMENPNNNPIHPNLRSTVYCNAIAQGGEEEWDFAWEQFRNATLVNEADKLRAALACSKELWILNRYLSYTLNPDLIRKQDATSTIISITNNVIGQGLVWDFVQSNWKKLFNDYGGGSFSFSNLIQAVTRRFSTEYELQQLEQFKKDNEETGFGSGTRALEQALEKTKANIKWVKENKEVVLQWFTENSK

[2] = target: T1, soluble ectodomain of human …; assay: SPR; settings: both partners purified; remark: listed apart in the source

Binder | Kd [1] [nM] | koff [1] [s⁻¹] | kon [1] [M⁻¹ s⁻¹] | Kd [2] [nM] | koff [2] [s⁻¹] | kon [2] [M⁻¹ s⁻¹]
B1 | 434 | 0.16 | 360000 | 430 | 0.16 | 360000
B2 |  |  |  | 1630 | 0.06 | 39000
